The labels stand for the following.
B1: HC-18/LC-18 (Ab18) (antibody, IgG1, V domains shown)
VH: EVQLQQYGAELGKPGTSVRLSCKVSGYNIRNTYIHWVNQRPGEGLEWIGRIDPTNGNTISAEKFKTKATLTADTSSHTAYLQFSQLKSDDTAIYFCALNYEGYADYWGQGVMVTGSS
VL: DIQMTQSPSFLSASVGDRVTINCKASQNINKYLNWYQQKVGEAPKRLIFKTNSLQTGIPSRFSGSGSGTDYTLTISSLQTEDVATYFCFQYNIGYTFGAGTKVELK
notes: From rat immunization/hybridoma; purified IgG in BLI; also called 018
B2: HC-17/LC-17 (Ab17) (antibody, IgG1, V domains shown)
VH: QIQLVQSGPELRKPGESVKISCKASGYTFTDYAMYWVKQAPGKGLKWMGWINTYTGKPTYADDFKGRFVFSLEASANTANLQISNLKNEDTATYFCARARGLVDDYVMDAWGQGTSVTVSS
VL: SYELIQPPSASVTLGNTVSLTCVGDELSKRYAQWYQQKPDKTIVSVIYKDSERPSGISDRFSGSSSGTTATLTIHGTLAEDEADYYCLSTYSDDNLPVFGGGTKLTVL
notes: From rat immunization/hybridoma; purified IgG in BLI; also called 017
B3: HC-2/LC-2 (Ab2) (antibody, IgG1, V domains shown)
VH: QVQLVQSGAAVKKPGESLKISCKGSGYRFTTYWIGWVRQMPGKGLEWMGIIYPGDSDTRYSPSFQGQVTISAGKSISTAYLQWSSLKASDTAMYYCARHGRGYNGYEGAFDIWGQGTMVTVSS
VL: DIQLTQSPSSLSASVGDRVTITCRASQGIRTDLGWYQQKPGKAPKLLIYDASSLESGVPSRFSGSGSGTDFTLTISSLQPEDFATYYCQQFNSYPLTFGGGTKVEIK
notes: Purified IgG; also called 002
B4: HC-6/LC-6 (Ab6) (antibody, IgG1, V domains shown)
VH: QVQLVQSGAAVKKPGESLKISCKGSGYRFTTYWIGWVRQMPGKGLEWMGIIYPGDSDTRYSPSFQGQVTISAGKSISTAYLQWSSLKASDTAMYYCARHGRGYNGYEGAFDIWGQGTMVTVSS
VL: AIRMTQSPSSLSASVGDRVIIACRASQGIGGALAWYQQKPGNAPKVLVYDASTLESGVPSRFSGGGSGTDFTLTISSLQPEDFATYYCQQFNSYPLTFGGGTKLEIK
notes: Purified IgG; also called 006
B5: HC-9/LC-9 (Ab9) (antibody, IgG1, V domains shown)
VH: QVQLVQSGAAVKKPGESLKISCKGSGYRFTTYWIGWVRQMPGKGLEWMGIIYPGDSDTRYSPSFQGQVTISAGKSISTAYLQWSSLKASDTAMYYCARHGRGYNGYEGAFDIWGQGTMVTVSS
VL: AIRMTQSPSSLSASVGDRVTITCQASQGIRNDLGWYQQKPGKAPKLLIYDASNLETGVPSRFSGSGSGTDFTFTISSLQPEDIATYYCQQFNSYPLTFGGGTKLEIK
notes: Purified IgG; also called 009
B6: HC-10/LC-10 (Ab10) (antibody, IgG1, V domains shown)
VH: QVQLVQSGAAVKKPGESLKISCKGSGYRFTTYWIGWVRQMPGKGLEWMGIIYPGDSDTRYSPSFQGQVTISAGKSISTAYLQWSSLKASDTAMYYCARHGRGYNGYEGAFDIWGQGTMVTVSS
VL: NIQMTQSPSSLSTSVGDRVTITCRASQGIGTSLAWYQQKPGKPPKLLIYDASSLESGVPSRLSGSGSGTDFTLTISSLQPEDFATYYCQQSNSYPITFGQGTRLEIK
notes: Purified IgG; also called 010
B7: HC-11/LC-11 (Ab11) (antibody, IgG1, V domains shown)
VH: QVQLVQSGAAVKKPGESLKISCKGSGYRFTTYWIGWVRQMPGKGLEWMGIIYPGDSDTRYSPSFQGQVTISAGKSISTAYLQWSSLKASDTAMYYCARHGRGYNGYEGAFDIWGQGTMVTVSS
VL: AIQLTQSPSSLSASVGDRVTITCRASQSIGDYLTWYQQKPGKAPKVLIYGASSLQSGVPPRFSGSGSGTDFTLTVSSLQPEDFATYYCQQLNSYPLTFGGGTKLEIK
notes: Purified IgG; also called 011
B8: HC-16/LC-16 (Ab16) (antibody, IgG1, V domains shown)
VH: QVQLVQSGAAVKKPGESLKISCKGSGYRFTTYWIGWVRQMPGKGLEWMGIIYPGDSDTRYSPSFQGQVTISAGKSISTAYLQWSSLKASDTAMYYCARHGRGYNGYEGAFDIWGQGTMVTVSS
VL: AIQLTQSPSSLSASVGDRVTITCRASQGITSALAWYQEKPGKAPNLLIYDASSLESGVPSRFSGSGYGTDFTLTISSLQPEDFATYYCQQLNSYPLTFGGGTKVDIK
notes: Purified IgG; also called 016
B9: HC-14/LC-14 (Ab14) (antibody, IgG1, V domains shown)
VH: QVQLVQSGAAVKKPGESLKISCKGSGYRFTTYWIGWVRQMPGKGLEWMGIIYPGDSDTRYSPSFQGQVTISAGKSISTAYLQWSSLKASDTAMYYCARHGRGYNGYEGAFDIWGQGTMVTVSS
VL: DIQLTQSPSSLSASVGDRVTITCRASQGISSFLAWYQQKPGKAPKLLIYDASTLQSGVPSRFSGSASGTDFTLTISSLQPEDFATYYCQQLNGYPLTFGGGTKVEIK
notes: Purified IgG; also called 014
B10: HC-8/LC-8 (Ab8) (antibody, IgG1, V domains shown)
VH: QVQLVQSGAAVKKPGESLKISCKGSGYRFTTYWIGWVRQMPGKGLEWMGIIYPGDSDTRYSPSFQGQVTISAGKSISTAYLQWSSLKASDTAMYYCARHGRGYNGYEGAFDIWGQGTMVTVSS
VL: DIQMTQSPSSLSASVGDRVTITCRASQGISSALAWYQQKAGKAPKVLISDASSLESGVPSRFSGSGSGTDFTLSISSLQPEDFATYYCQQFNGYPLTFGGGTKVDIK
notes: Purified IgG; also called 008
B11: HC-7/LC-7 (Ab7) (antibody, IgG1, V domains shown)
VH: QVQLVQSGAAVKKPGESLKISCKGSGYRFTTYWIGWVRQMPGKGLEWMGIIYPGDSDTRYSPSFQGQVTISAGKSISTAYLQWSSLKASDTAMYYCARHGRGYNGYEGAFDIWGQGTMVTVSS
VL: DIAMTQSPPSLSAFVGDRVTITCRASQGIISSLAWYQQKPGKAPKLLIYDASSLESGVPSRFSGSGSGTDFTLTIRSLQPEDFATYYCQQFNSYPLTFGGGTKLEIK
notes: Purified IgG; also called 007
B12: HC-15/LC-15 (Ab15) (antibody, IgG1, V domains shown)
VH: QVQLVQSGAAVKKPGESLKISCKGSGYRFTTYWIGWVRQMPGKGLEWMGIIYPGDSDTRYSPSFQGQVTISAGKSISTAYLQWSSLKASDTAMYYCARHGRGYNGYEGAFDIWGQGTMVTVSS
VL: AIQLTQSPSSLSASVGDRVTITCRASQGIGSALAWYQQKPGIGPKLLIYDASTLESGVPARFSGSGSRTDFTLTITSLQPEDFATYYCQQFNGYPLTFGGGTKLEIK
notes: Purified IgG; also called 015
B13: HC-4/LC-4 (Ab4) (antibody, IgG1, V domains shown)
VH: QVQLVQSGAAVKKPGESLKISCKGSGYRFTTYWIGWVRQMPGKGLEWMGIIYPGDSDTRYSPSFQGQVTISAGKSISTAYLQWSSLKASDTAMYYCARHGRGYNGYEGAFDIWGQGTMVTVSS
VL: AIQMTQSPSSLSASVGDRVTITCRASQGIRNDLGWYQQKPGKAPKLLIYDASSLESGVPSRFSGSGSGTDFTLTISSLQPEDFATYYCQQFNSYPLTFGGGTKVDIK
notes: Purified IgG; also called 004
B14: HC-12/LC-12 (Ab12) (antibody, IgG1, V domains shown)
VH: QVQLVQSGAAVKKPGESLKISCKGSGYRFTTYWIGWVRQMPGKGLEWMGIIYPGDSDTRYSPSFQGQVTISAGKSISTAYLQWSSLKASDTAMYYCARHGRGYNGYEGAFDIWGQGTMVTVSS
VL: DIQLTQSPSSLSASVGDRVTITCRASQGVRSTLAWYQQKPGKAPKLLIYDASILESGVPSRFSGSGSGTDFTLTISSLQPEDFATYYCQQFNGYPLTFGQGTRLEIK
notes: Purified IgG; also called 012
B15: HC-5/LC-5 (Ab5) (antibody, IgG1, V domains shown)
VH: QVQLVQSGAAVKKPGESLKISCKGSGYRFTTYWIGWVRQMPGKGLEWMGIIYPGDSDTRYSPSFQGQVTISAGKSISTAYLQWSSLKASDTAMYYCARHGRGYNGYEGAFDIWGQGTMVTVSS
VL: NIQMTQSPSSLSASVGDRVTITCRASQAISDYLAWFQQKPGKAPKLLIYDASNLETGVPSRFSGSGSGTDFTLTISSLQPEDFATYYCQQLNSYPLTFGGGTKVEIK
notes: Purified IgG; also called 005
B16: HC-13/LC-13 (Ab13) (antibody, IgG1, V domains shown)
VH: QVQLVQSGAAVKKPGESLKISCKGSGYRFTTYWIGWVRQMPGKGLEWMGIIYPGDSDTRYSPSFQGQVTISAGKSISTAYLQWSSLKASDTAMYYCARHGRGYNGYEGAFDIWGQGTMVTVSS
VL: DIVMTQSPSSLSASVGDRVTITCRASQGIRNDLGWYQQKPGKAPKLLIYDASSLESGVPSRFSGSGSGTDFTLTISSLQPEDFATYYCQQFNSYPLTFGGGTKLEIK
notes: Purified IgG; also called 013
B17: HC-3/LC-3 (Ab3) (antibody, IgG1, V domains shown)
VH: QVQLVQSGAAVKKPGESLKISCKGSGYRFTTYWIGWVRQMPGKGLEWMGIIYPGDSDTRYSPSFQGQVTISAGKSISTAYLQWSSLKASDTAMYYCARHGRGYNGYEGAFDIWGQGTMVTVSS
VL: AIRMTQSPSSLSASVGDRVTITCRASQGIRNDLAWYQQKPGKTPKLLIYDASSLESGVPSRFSGSGSGTDFTLTISSLQPEDFATYYCQQFNSYPLTFGGGTKVEIK
notes: Purified IgG; also called 003

As a reminder, the koff is the first-order rate constant of dissociation. As usually defined, the kon is the rate constant with which the complex forms.

T2 sequence (P10721 26-524): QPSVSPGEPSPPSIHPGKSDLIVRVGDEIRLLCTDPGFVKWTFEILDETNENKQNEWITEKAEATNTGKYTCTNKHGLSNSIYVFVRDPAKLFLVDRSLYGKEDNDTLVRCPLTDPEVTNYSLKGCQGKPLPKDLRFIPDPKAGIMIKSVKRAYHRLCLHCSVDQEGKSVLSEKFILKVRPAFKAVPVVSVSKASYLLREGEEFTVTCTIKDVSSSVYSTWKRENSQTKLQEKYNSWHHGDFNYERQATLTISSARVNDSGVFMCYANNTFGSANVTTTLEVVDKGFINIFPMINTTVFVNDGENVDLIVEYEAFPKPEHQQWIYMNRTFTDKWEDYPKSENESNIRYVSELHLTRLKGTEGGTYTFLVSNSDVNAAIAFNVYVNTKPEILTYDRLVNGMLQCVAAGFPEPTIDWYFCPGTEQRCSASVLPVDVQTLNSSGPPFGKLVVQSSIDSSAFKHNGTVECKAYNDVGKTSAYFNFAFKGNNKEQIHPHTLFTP

The first experiment concerns the target T1, purified rhesus CD117 ectodomain (rhesus, UniProt F6V858 26-524).
T1 construct: extracellular domain; also called rhesus antigen
Put plainly: BLI, purified IgG on sensor, soluble rhesus ectodomain; apparent monovalent. (In general: Biolayer interferometry detects binding as a change in optical thickness at a sensor tip.)
Take B1: the Kd was 53.8 nM, the koff was determined as 0.0119 s⁻¹ and the kon was found to be 221000 M⁻¹ s⁻¹.
The corresponding values for B2 are 0.562 nM, 0.000173 s⁻¹ and 307000 M⁻¹ s⁻¹.

Another experiment addresses T2, purified human CD117 ectodomain (R&D Systems #332-SR) (human, UniProt P10721 26-524).
T2 construct: extracellular domain; Bought protein; also called c-kit; purified recombinant human CD117 ectodomain
The experiment is described as follows: BLI, purified IgG on sensor, soluble ectodomain; apparent monovalent.
For B3, the Kd was found to be 0.729 nM, the koff came out at 0.00027 s⁻¹ and the kon came to 370000 M⁻¹ s⁻¹.
The corresponding values for B4 are 3.72 nM, 0.00117 s⁻¹ and 315000 M⁻¹ s⁻¹.
The corresponding values for B5 are 1.51 nM, 0.000427 s⁻¹ and 283000 M⁻¹ s⁻¹.
Consider B6, for which the Kd came to 1.68 nM, the koff amounted to 0.000585 s⁻¹ and the kon came out at 348000 M⁻¹ s⁻¹.
For B7, in that order: 1.41 nM, 0.000474 s⁻¹ and 336000 M⁻¹ s⁻¹.
For B8, in that order: 2.93 nM, 0.000949 s⁻¹ and 324000 M⁻¹ s⁻¹.
The corresponding values for B9 are 2.03 nM, 0.000577 s⁻¹ and 284000 M⁻¹ s⁻¹.
For B10, the Kd turned out to be 0.908 nM, the koff was 0.000264 s⁻¹ and the kon turned out to be 290000 M⁻¹ s⁻¹.
For B11, in that order: 0.99 nM, 0.000272 s⁻¹ and 275000 M⁻¹ s⁻¹.
For B12, in that order: 0.979 nM, 0.00026 s⁻¹ and 265000 M⁻¹ s⁻¹.
As to B13, the Kd was found to be 1.18 nM, the koff came to 0.000405 s⁻¹ and the kon came out at 345000 M⁻¹ s⁻¹.
For B14, in that order: 0.911 nM, 0.000268 s⁻¹ and 294000 M⁻¹ s⁻¹.
The corresponding values for B15 are 1.21 nM, 0.000461 s⁻¹ and 380000 M⁻¹ s⁻¹.
For B16, in that order: 1.55 nM, 0.000488 s⁻¹ and 314000 M⁻¹ s⁻¹.
On to B17, for which the Kd came to 1.02 nM, the koff was determined as 0.000352 s⁻¹ and the kon was found to be 346000 M⁻¹ s⁻¹.
Consider B1, for which the Kd stood at 22.2 nM, the koff stood at 0.00491 s⁻¹ and the kon is 221000 M⁻¹ s⁻¹.
As to B2, the Kd was 0.672 nM, the koff is 0.000306 s⁻¹ and the kon is 456000 M⁻¹ s⁻¹.
